Assay results reported in patent US20020131970A1 (Scripps Research, published 2002).

Columns and labels:
[1] = biological target: recombinant ICAM-1 on the surface of transfected fibroblast-like (COS) cells of Example 4 (human) (UniProt P05362); test: 125I-D30 on ICAM-1 transfected cells, with CaCl2, no inhibitor
[2] = biological target: intercellular adhesion molecule 1 (ICAM-1), the RGD-independent fibrinogen receptor, native, on the surface of cells (HUVEC, JY lymphocytes) (human) (UniProt P05362); test: 125I-D30 at 10 µg/ml on HUVEC monolayers
[3] = biological target: recombinant ICAM-1 on the surface of transfected fibroblast-like (COS) cells of Example 4 (human) (UniProt P05362); test: 125I-D30 on ICAM-1 transfected cells, with MnCl2, no inhibitor
[4] = biological target: T1, intercellular adhesion molecule 1 (ICAM-1), the RGD-independent fibrinogen receptor, native, on the surface … (human, UniProt P05362 28-532); test: adhesion of 51Cr-labelled ICAM-1+ JY lymphocytes to wells coated with 1-100 µg/ml peptide
T1 construct: whole, on cells; assays on HUVEC monolayers are written against this molecule; also called ECR; endothelial cell receptor
Description: Serum-free suspensions of JY lymphocytes were labeled with 0.5 mCi ⁵¹Cr (Na₂CrO₄, specific activity 487.4 mCi/mg, E. I., DuPont de Nemours, Wilmington, Del.) for 2 h at 37° C., with a final incorporation of 0.2-4 cpm/cell (Languino, et al., supra). Aliquots of ⁵¹Cr-labeled JY lymphocytes at 1×10⁶/ml were added to peptide-coated wells for 45 min at 37° C., washed, solubilized in 20% SDS, and radioactivity associated under the various conditions was determined in a scintillation beta-counter. The number of attached cells was quantitated by dividing the cpm harvested by the cpm/cell. Data are the mean ± S.D. of two independent experiments.
The specific binding of radiolabelled ICAM-1⁺ JY lymphocytes to increasing concentrations of γ3 was measured to characterize the ICAM-1 binding site. The number of attached cells is plotted on the Y-axis against peptide concentration (μg/ml) plotted on the X-axis.

[5] = biological target: T1, intercellular adhesion molecule 1 …; test: adhesion of 51Cr-labelled ICAM-1+ JY lymphocytes to peptide-coated wells

T1 sequence (P05362 28-532): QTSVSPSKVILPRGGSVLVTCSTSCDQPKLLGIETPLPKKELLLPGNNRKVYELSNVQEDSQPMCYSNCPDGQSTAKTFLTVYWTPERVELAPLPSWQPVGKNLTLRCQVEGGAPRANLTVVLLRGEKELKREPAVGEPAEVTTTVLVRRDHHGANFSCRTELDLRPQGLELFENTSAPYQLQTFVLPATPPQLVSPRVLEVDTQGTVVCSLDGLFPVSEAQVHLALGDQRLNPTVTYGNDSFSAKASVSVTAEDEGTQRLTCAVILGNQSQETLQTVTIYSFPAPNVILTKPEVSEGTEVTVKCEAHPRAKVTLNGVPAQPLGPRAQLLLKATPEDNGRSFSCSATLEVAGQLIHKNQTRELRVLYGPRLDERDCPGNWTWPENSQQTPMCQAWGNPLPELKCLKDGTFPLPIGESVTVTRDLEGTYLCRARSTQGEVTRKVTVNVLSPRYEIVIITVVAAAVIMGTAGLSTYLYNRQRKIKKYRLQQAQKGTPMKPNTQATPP
Chain of recombinant ICAM-1 on the surface of transfected fibroblast-like (COS) cells of Example 4 (human) (P05362 28-532): as above
Chain of intercellular adhesion molecule 1 (ICAM-1), the RGD-independent fibrinogen receptor, native, on the surface of cells (HUVEC, JY lymphocytes) (human) (P05362 28-532): as above

“D30 fragment of fibrinogen (30 kD plasmin digestion product of fragment D) (from UniProt P02671 155-225; P02675 164-250)” was tested. Which cpm bound [1] did it give?
The cpm bound was 3000 cpm.

What about the cpm bound [2] of the same molecule?
The cpm bound was 60000 cpm.

What about the cpm bound [3] of the same molecule?
Its cpm bound is 7500 cpm.

B1: polypeptide γ3, fibrinogen γ chain residues 117-133 (peptide)
peptide: NNQKIVNLKEKVAQLEA
notes: Coated on plates in the JY adhesion assays; also called γ3 polypeptide; unlabeled γ3 peptide
Does B1 bind [4]?
Result: binds

B2: polypeptide L10, fibrinogen γ chain residues 402-411 (peptide)
peptide: LGGAKQAGDV
notes: also called control peptide L10; irrelevant polypeptide L10
Does B2 bind [5]?
Result: no binding (tested: 1-100 µg/ml coating)
